Experimental data from the RNAGym collection of RNA variant scans (doi:10.7554/elife.80360).

B1: CPEB3 Ribozyme (parent)
chain: GGGGGCCACAGCAGAAGCGUUCACGUCGCGGCCCCUGUCAGAUUCUGGUGAAUCUGCGAAUUCUGCUGU

Variants of: B1
Experiment: self-cleavage, relative activity (ratio to wild type); higher = more cleavage; co-transcriptional

Variant	self-cleavage
GGGGGCCACAGCAGAAGCGUUGACGUCCCGGCCCCUGUCAGAUUCUGGUGAAUCUGCGAAUUCUGCUGU [C22G G28C]	0.18
GGGGGCCACAGCAGAAGCGUUGACGUCUCGGCCCCUGUCAGAUUCUGGUGAAUCUGCGAAUUCUGCUGU [C22G G28U]	0.182
GGGGGCCACAGCAGAAGCGUUGACGUCGCGGCCCCUGUCAGAUUCUGGUGAAUCUUCGAAUUCUGCUGU [C22G G56U]	0.202
GGGGGCCACAGCAGAAGCGUUGACGUCGCCGCCCCUGUCAGAUUCUGGUGAAUCUGCGAAUUCUGCUGU [C22G G30C]	0.166
GGGGGCCACAGCAGAAGCGUUGACGUCGCAGCCCCUGUCAGAUUCUGGUGAAUCUGCGAAUUCUGCUGU [C22G G30A]	0.219
GGGGGCCACAGCAGAAGCGUUGACGUCGCUGCCCCUGUCAGAUUCUGGUGAAUCUGCGAAUUCUGCUGU [C22G G30U]	0.162
GGGGGCCACAGCAGAAGCGUUGACGUCGCGGCCCCCGUCAGAUUCUGGUGAAUCUGCGAAUUCUGCUGU [C22G U36C]	0.236
GGGGGCCACAGCAGAAGCGUUGACGUCGCGGCCCCAGUCAGAUUCUGGUGAAUCUGCGAAUUCUGCUGU [C22G U36A]	0.152
GGGGGCCACAGCAGAAGCGUUGACGUCGCGGCCCCGGUCAGAUUCUGGUGAAUCUGCGAAUUCUGCUGU [C22G U36G]	0.143
GGGGGCCACAGCAGAAGCGUUGACGUCGCGGCCCCUUUCAGAUUCUGGUGAAUCUGCGAAUUCUGCUGU [C22G G37U]	0.527
GGGGGCCACAGCAGAAGCGUUGACGUCGCGGCCCCUGGCAGAUUCUGGUGAAUCUGCGAAUUCUGCUGU [C22G U38G]	0.177
GGGGGCCACAGCAGAAGCGUUGACGUCGCGGCCCCUGACAGAUUCUGGUGAAUCUGCGAAUUCUGCUGU [C22G U38A]	0.165
GGGGGCCACAGCAGAAGCGUUGACGUCGCGGCCCCUGCCAGAUUCUGGUGAAUCUGCGAAUUCUGCUGU [C22G U38C]	0.232
GGGGGCCACAGCAGAAGCGUUGACGUCGCGGCCCCUGUCAGAUUCUGGUGAAUCUGCGAAUUCUACUGU [C22G G65A]	0.173
GGGGGCCACAGCAGAAGCGUUGACGUCGCGGCCCCUGUCAGAUUCUGGUGAAUCUGCGAAUUCUUCUGU [C22G G65U]	0.212
GGGGGCCACAGCAGAAGCGUUGACGUCGCGGCCCCUGUCAGAUUCUGGUGAAUCUGCGAAUUCUCCUGU [C22G G65C]	0.196
GGGGGCCACAGCAGAAGCGUUGACGUCGCGGCCCCUGUCAGAUUCUGGUGAAUCUGCGAAUUCUGCUUU [C22G G68U]	0.197
GGGGGCCACAGCAGAAGCGUUGACGUCGCGUCCCCUGUCAGAUUCUGGUGAAUCUGCGAAUUCUGCUGU [C22G G31U]	0.178
GGGGGCCACAGCAGAAGCGUUGACGUCGCGGCCCCUGUCAGAAUCUGGUGAAUCUGCGAAUUCUGCUGU [C22G U43A]	0.114
GGGGGCCACAGCAGAAGCGUUGACGGCGCGGCCCCUGUCAGAUUCUGGUGAAUCUGCGAAUUCUGCUGU [C22G U26G]	0.163

Variant	self-cleavage
GGGGGCCACAGCAGAAGCGUUGACGUCGCGGCCCCUGUCAGAUUCUGGUUAAUCUGCGAAUUCUGCUGU [C22G G50U]	0.145
GGGGGCCACAGCAGAAGCGUUGACGUCGCGGCCCCUGUCAGAUUCUGGUCAAUCUGCGAAUUCUGCUGU [C22G G50C]	0.127
GGGGGCCACAGCAGAAGCGUUGACGUCGCGGCCCCUGUCAGAUUCUAGUGAAUCUGCGAAUUCUGCUGU [C22G G47A]	0.149
GGGGGCCACAGCAGAAGCGUUGACGUCGCGGCCCCUGUCAGAUUCUUGUGAAUCUGCGAAUUCUGCUGU [C22G G47U]	0.133
GGGGGCCACAGCAGAAGCGUUGACGUCGCGGCCCCUGUCAGAUUCUCGUGAAUCUGCGAAUUCUGCUGU [C22G G47C]	0.122
GGGGGCCACAGCAGAAGCGUUGACGUCGCGGCCCCUGUCAGAUUCUGAUGAAUCUGCGAAUUCUGCUGU [C22G G48A]	0.226
GGGGGCCACAGCAGAAGCGUUGACGUCGCGGCCCCUGUCAGAUUCUGUUGAAUCUGCGAAUUCUGCUGU [C22G G48U]	0.161
GGGGGCCACAGCAGAAGCGUUGACGUCGCGGCCCCUGUCAGAUUCUGGUGAAUCUGCUAAUUCUGCUGU [C22G G58U]	0.202
GGGGGCCACAGCAGAAGCGUUGACGUCGCGGCCCCUGUCAGAUUCUGGUGAAUCUGCCAAUUCUGCUGU [C22G G58C]	0.161
GGGGGCCACAGCAGAAGCGUUGACCUCGCGGCCCCUGUCAGAUUCUGGUGAAUCUGCGAAUUCUGCUGU [C22G G25C]	0.248
GGGGGCCACAGCAGAAGCGUUGACUUCGCGGCCCCUGUCAGAUUCUGGUGAAUCUGCGAAUUCUGCUGU [C22G G25U]	0.146
GGGGGCCACAGCAGAAGCGUUGACAUCGCGGCCCCUGUCAGAUUCUGGUGAAUCUGCGAAUUCUGCUGU [C22G G25A]	0.177
GGGGGCCACAGCAGAAGCGUUGACGUCGCGGCCCCUGUCAAAUUCUGGUGAAUCUGCGAAUUCUGCUGU [C22G G41A]	0.147
GGGGGCCACAGCAGAAGCGUUGACGUCGCGGCCCCUGUCAUAUUCUGGUGAAUCUGCGAAUUCUGCUGU [C22G G41U]	0.178
GGGGGCCACAGCAGAAGCGUUGACGUCGCGGCCCCUGUCACAUUCUGGUGAAUCUGCGAAUUCUGCUGU [C22G G41C]	0.105
GGGGGCCACAGCAGAAGCGUUGACGUCGCGGCCCCUGUCAGAUUCUGGUGAAUCUGCGAAUUCUGGUGU [C22G C66G]	0.182
GGGGGCCACAGCAGAAGCGUUGACGUCGCGGCCCCUGUCAGAUUCUGGUGAAUCUGCGAAUUCUGAUGU [C22G C66A]	0.135
GGGGGCCACAGCAGAAGCGUUGACGUCGCGGCCCCUGUCAGAUUCUGGUGAAUCUGCGAAUUUUGCUGU [C22G C63U]	0.123
GGGGGCCACAGCAGAAGCGUUGACGUCGCGGCCCCUGUCAGAUUCUGGUGAAUCUGCGAAUUGUGCUGU [C22G C63G]	0.209
